Our source for the stoichiometry N values is publication PMC4067995.

The assay concerns the target V1 (A3B3DF), the soluble subcomplex of TtATPase without peripheral stalks (Thermus thermophilus strain HB8) (UniProt Q56403). In words: native MS.

Chain of V1 (A3B3DF), the soluble subcomplex of TtATPase without peripheral stalks (Thermus thermophilus strain HB8) (Q56403 whole entry, chain 1 of 4): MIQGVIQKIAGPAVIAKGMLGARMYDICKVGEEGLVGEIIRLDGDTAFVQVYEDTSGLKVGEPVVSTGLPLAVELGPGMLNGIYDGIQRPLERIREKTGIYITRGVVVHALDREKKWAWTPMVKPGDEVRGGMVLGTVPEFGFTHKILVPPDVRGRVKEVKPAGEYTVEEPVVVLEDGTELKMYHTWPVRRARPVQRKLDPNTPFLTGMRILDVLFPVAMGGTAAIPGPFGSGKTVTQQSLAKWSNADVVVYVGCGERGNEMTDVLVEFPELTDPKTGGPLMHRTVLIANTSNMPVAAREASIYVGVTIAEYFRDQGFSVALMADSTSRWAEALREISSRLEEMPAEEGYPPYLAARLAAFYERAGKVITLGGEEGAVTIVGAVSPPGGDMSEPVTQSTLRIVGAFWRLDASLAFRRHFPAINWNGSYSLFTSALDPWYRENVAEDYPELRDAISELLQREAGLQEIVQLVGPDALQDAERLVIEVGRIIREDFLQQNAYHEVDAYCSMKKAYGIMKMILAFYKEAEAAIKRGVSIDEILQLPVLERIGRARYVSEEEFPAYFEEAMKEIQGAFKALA
Chain of V1 (A3B3DF), the soluble subcomplex of TtATPase without peripheral stalks (Thermus thermophilus strain HB8) (Q56404 whole entry, chain 2 of 4, further chain): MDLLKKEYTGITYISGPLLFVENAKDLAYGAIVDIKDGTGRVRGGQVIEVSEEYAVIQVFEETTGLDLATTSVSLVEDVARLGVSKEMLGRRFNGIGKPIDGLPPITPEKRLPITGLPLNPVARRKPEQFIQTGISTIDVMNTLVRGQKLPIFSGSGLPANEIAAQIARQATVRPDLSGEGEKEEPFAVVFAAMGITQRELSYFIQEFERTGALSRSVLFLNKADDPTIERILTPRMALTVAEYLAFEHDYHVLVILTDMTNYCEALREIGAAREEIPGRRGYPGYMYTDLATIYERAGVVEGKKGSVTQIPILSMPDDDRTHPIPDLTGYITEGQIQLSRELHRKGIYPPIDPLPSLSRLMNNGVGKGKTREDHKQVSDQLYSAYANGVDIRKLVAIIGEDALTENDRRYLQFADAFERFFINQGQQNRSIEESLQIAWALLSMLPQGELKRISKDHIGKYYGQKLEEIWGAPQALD
Chain of V1 (A3B3DF), the soluble subcomplex of TtATPase without peripheral stalks (Thermus thermophilus strain HB8) (O87880 whole entry, chain 3 of 4, further chain): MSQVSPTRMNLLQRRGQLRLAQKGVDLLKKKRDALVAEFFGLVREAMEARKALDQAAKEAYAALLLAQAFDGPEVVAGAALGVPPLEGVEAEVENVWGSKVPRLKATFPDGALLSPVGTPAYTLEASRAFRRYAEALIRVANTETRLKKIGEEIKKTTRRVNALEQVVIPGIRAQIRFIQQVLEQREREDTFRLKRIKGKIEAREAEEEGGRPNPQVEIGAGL
Chain of V1 (A3B3DF), the soluble subcomplex of TtATPase without peripheral stalks (Thermus thermophilus strain HB8) (P74903 whole entry, chain 4 of 4, further chain): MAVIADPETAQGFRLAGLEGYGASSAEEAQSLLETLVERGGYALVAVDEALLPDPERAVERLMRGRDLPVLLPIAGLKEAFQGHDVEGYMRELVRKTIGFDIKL

As for “peripheral EG stalk of TtATPase (from UniProt P74901 1-188) (complex)”, the stoichiometry N (commonly a count of units in the complex or per binding partner) worked out at 2.
